We go through five sequences from the supplement of paper PMC5998384.

Data set [1] concerns HeLa Kyoto. As to the kind of experiment: solubility in G1/S (NP-40 vs SDS abundance) (log2 ratio); higher = more soluble. Conditions: cell cycle stage: G1/S.
The test system of data set [2] is HeLa Kyoto. As to the kind of experiment: melting temperature (median over replicates), in situ; higher = more thermally stable.
Data set [3] concerns HeLa Kyoto. The data set is described as follows: solubility change mitosis vs G1/S (difference of NP-40 vs SDS log2 ratios) (log2 ratio difference); higher = more soluble in mitosis.
The subject of data set [4] is HeLa Kyoto. The data set is described as follows: thermal stability score vs G1/S (z-score of summed log2 fold changes over temperatures); higher = more thermally stable than in G1/S.
The mark [5] stands for this setting: cell cycle stage: early G1 (4.5 h after nocodazole release).
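Throughout, for melting temperature (median over replicates), in situ: HeLa Kyoto cells synchronized by double thymidine or nocodazole block, proteins quantified by TMT10plex mass spectrometry, three independent biological replicates.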
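Throughout, for solubility change mitosis vs G1/S (difference of NP-40 vs SDS log2 ratios): synchronized HeLa Kyoto cells (double thymidine block for G1/S, nocodazole release for mitosis), protein amounts in NP-40 versus SDS lysates quantified by mass spectrometry, three biological replicates.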
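Throughout, for solubility in G1/S (NP-40 vs SDS abundance): HeLa Kyoto cells arrested at G1/S by double thymidine block, proteins quantified by TMT10plex mass spectrometry in mild NP-40 versus SDS extracts, three biological replicates.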
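Throughout, for thermal stability score vs G1/S (z-score of summed log2 fold changes over temperatures): synchronized HeLa Kyoto cells, proteins quantified by TMT10plex mass spectrometry, three biological replicates, mitosis taken 0.5 h after nocodazole release, G1/S directly after double thymidine block.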

Take “MSMEDYDFLFKIVLIGNAGVGKTCLVRRFTQGLFPPGQGATIGVDFMIKTVEINGEKVKLQIWDTAGQERFRSITQSYYRSANALILTYDITCEESFRCLPEWLREIEQYASNKVITVLVGNKIDLAERREVSQQRAEEFSEAQDMYYLETSAKESDNVEKLFLDLACRLISEARQNTLVNNVSSPLPGEGKSISYLTCCNFN [RAB30]”: the “solubility in G1/S (log2)” value with HeLa Kyoto [1] is -0.379. Besides, the melting temperature was 51.3 °C in the data set on HeLa Kyoto [2] (cell cycle stage: G1/S) and 51.7 °C in the data set on HeLa Kyoto [2] (cell cycle stage: mitosis). In addition, the “solubility change mitosis (log2)” value in the data set on HeLa Kyoto [3] is -0.0812. The thermal stability score turned out to be 0.727 in the data set with HeLa Kyoto [4] (setting [5]) and 1.4 in the data set with HeLa Kyoto [4] (cell cycle stage: mitosis).

“MSMLKPSGLKAPTKILKPGSTALKTPTAVVAPVEKTISSEKASSTPSSETQEEFVDDFRVGERVWVNGNKPGFIQFLGETQFAPGQWAGIVLDEPIGKNDGSVAGVRYFQCEPLKGIFTRPSKLTRKVQAEDEANGLQTTPASRATSPLCTSTASMVSSSPSTPSNIPQKPSQPAAKEPSATPPISNLTKTASESISNLSEAGSIKKGERELKIGDRVLVGGTKAGVVRFLGETDFAKGEWCGVELDEPLGKNDGAVAGTRYFQCQPKYGLFAPVHKVTKIGFPSTTPAKAKANAVRRVMATTSASLKRSPSASSLSSMSSVASSVSSRPSRTGLLTETSSRYARKISGTTALQEALKEKQQHIEQLLAERDLERAEVAKATSHVGEIEQELALARDGHDQHVLELEAKMDQLRTMVEAADREKVELLNQLEEEKRKVEDLQFRVEEESITKGDLEQKSQISEDPENTQTKLEHARIKELEQSLLFEKTKADKLQRELEDTRVATVSEKSRIMELEKDLALRVQEVAELRRRLESNKPAGDVDMSLSLLQEISSLQEKLEVTRTDHQREITSLKEHFGAREETHQKEIKALYTATEKLSKENESLKSKLEHANKENSDVIALWKSKLETAIASHQQAMEELKVSFSKGLGTETAEFAELKTQIEKMRLDYQHEIENLQNQQDSERAAHAKEMEALRAKLMKVIKEKENSLEAIRSKLDKAEDQHLVEMEDTLNKLQEAEIKVKELEVLQAKCNEQTKVIDNFTSQLKATEEKLLDLDALRKASSEGKSEMKKLRQQLEAAEKQIKHLEIEKNAESSKASSITRELQGRELKLTNLQENLSEVSQVKETLEKELQILKEKFAEASEEAVSVQRSMQETVNKLHQKEEQFNMLSSDLEKLRENLADMEAKFREKDEREEQLIKAKEKLENDIAEIMKMSGDNSSQLTKMNDELRLKERDVEELQLKLTKANENASFLQKSIEDMTVKAEQSQQEAAKKHEEEKKELERKLSDLEKKMETSHNQCQELKARYERATSETKTKHEEILQNLQKTLLDTEDKLKGAREENSGLLQELEELRKQADKAKAAQTAEDAMQIMEQMTKEKTETLASLEDTKQTNAKLQNELDTLKENNLKNVEELNKSKELLTVENQKMEEFRKEIETLKQAAAQKSQQLSALQEENVKLAEELGRSRDEVTSHQKLEEERSVLNNQLLEMKKRESKFIKDADEEKASLQKSISITSALLTEKDAELEKLRNEVTVLRGENASAKSLHSVVQTLESDKVKLELKVKNLELQLKENKRQLSSSSGNTDTQADEDERAQESQIDFLNSVIVDLQRKNQDLKMKVEMMSEAALNGNGDDLNNYDSDDQEKQSKKKPRLFCDICDCFDLHDTEDCPTQAQMSEDPPHSTHHGSRGEERPYCEICEMFGHWATNCNDDETF [CLIP1]”: the “solubility in G1/S (log2)” value in the data set with HeLa Kyoto [1] worked out at 0.37. Moreover, the figures for the melting temperature with HeLa Kyoto [2] (cell cycle stage: G1/S) and with HeLa Kyoto [2] (cell cycle stage: mitosis) were 54.7 °C and 54.2 °C, respectively. Also, the “solubility change mitosis (log2)” value in the data set with HeLa Kyoto [3] is -0.0152. Further, the thermal stability score in the data set with HeLa Kyoto [4] (setting [5]) was -1.53; in the data set with HeLa Kyoto [4] (cell cycle stage: mitosis) it was -1.75.

Turning to “MSNAKERKHAKKMRNQPTNVTLSSGFVADRGVKHHSGGEKPFQAQKQEPHPGTSRQRQTRVNPHSLPDPEVNEQSSSKGMFRKKGGWKAGPEGTSQEIPKYITASTFAQARAAEISAMLKAVTQKSSNSLVFQTLPRHMRRRAMSHNVKRLPRRLQEIAQKEAEKAVHQKKEHSKNKCHKARRCHMNRTLEFNRRQKKNIWLETHIWHAKRFHMVKKWGYCLGERPTVKSHRACYRAMTNRCLLQDLSYYCCLELKGKEEEILKALSGMCNIDTGLTFAAVHCLSGKRQGSLVLYRVNKYPREMLGPVTFIWKSQRTPGDPSESRQLWIWLHPTLKQDILEEIKAACQCVEPIKSAVCIADPLPTPSQEKSQTELPDEKIGKKRKRKDDGENAKPIKKIIGDGTRDPCLPYSWISPTTGIIISDLTMEMNRFRLIGPLSHSILTEAIKAASVHTVGEDTEETPHRWWIETCKKPDSVSLHCRQEAIFELLGGITSPAEIPAGTILGLTVGDPRINLPQKKSKALPNPEKCQDNEKVRQLLLEGVPVECTHSFIWNQDICKSVTENKISDQDLNRMRSELLVPGSQLILGPHESKIPILLIQQPGKVTGEDRLGWGSGWDVLLPKGWGMAFWIPFIYRGVRVGGLKESAVHSQYKRSPNVPGDFPDCPAGMLFAEEQAKNLLEKYKRRPPAKRPNYVKLGTLAPFCCPWEQLTQDWESRVQAYEEPSVASSPNGKESDLRRSEVPCAPMPKKTHQPSDEVGTSIEHPREAEEVMDAGCQESAGPERITDQEASENHVAATGSHLCVLRSRKLLKQLSAWCGPSSEDSRGGRRAPGRGQQGLTREACLSILGHFPRALVWVSLSLLSKGSPEPHTMICVPAKEDFLQLHEDWHYCGPQESKHSDPFRSKILKQKEKKKREKRQKPGRASSDGPAGEEPVAGQEALTLGLWSGPLPRVTLHCSRTLLGFVTQGDFSMAVGCGEALGFVSLTGLLDMLSSQPAAQRGLVLLRPPASLQYRFARIAIEV [POP1]”, the “solubility in G1/S (log2)” value in the data set on HeLa Kyoto [1] is -0.778. Moreover, the melting temperature stood at 52.2 °C with HeLa Kyoto [2] (cell cycle stage: G1/S) and 51.8 °C with HeLa Kyoto [2] (cell cycle stage: mitosis). In addition, in the data set with HeLa Kyoto [3], the “solubility change mitosis (log2)” value turned out to be 0.246. In addition, the figures for the thermal stability score in the data set on HeLa Kyoto [4] (setting [5]) and in the data set on HeLa Kyoto [4] (cell cycle stage: mitosis) were 1.22 and -1.05, respectively.

As to “MSNIYIQEPPTNGKVLLKTTAGDIDIELWSKEAPKACRNFIQLCLEAYYDNTIFHRVVPGFIVQGGDPTGTGSGGESIYGAPFKDEFHSRLRFNRRGLVAMANAGSHDNGSQFFFTLGRADELNNKHTIFGKVTGDTVYNMLRLSEVDIDDDERPHNPHKIKSCEVLFNPFDDIIPREIKRLKKEKPEEEVKKLKPKGTKNFSLLSFGEEAEEEEEEVNRVSQSMKGKSKSSHDLLKDDPHLSSVPVVESEKGDAPDLVDDGEDESAEHDEYIDGDEKNLMRERIAKKLKKDTSANVKSAGEGEVEKKSVSRSEELRKEARQLKRELLAAKQKKVENAAKQAEKRSEEEEAPPDGAVAEYRREKQKYEALRKQQSKKGTSREDQTLALLNQFKSKLTQAIAETPENDIPETEVEDDEGWMSHVLQFEDKSRKVKDASMQDSDTFEIYDPRNPVNKRRREESKKLMREKKERR [CWC27]”, the “solubility in G1/S (log2)” value in the data set on HeLa Kyoto [1] stood at 0.0954. The melting temperature stood at 47.3 °C in the data set with HeLa Kyoto [2] (cell cycle stage: G1/S) and 49.8 °C in the data set on HeLa Kyoto [2] (cell cycle stage: mitosis). In the data set with HeLa Kyoto [3], the “solubility change mitosis (log2)” value was determined as 0.0672. Besides, the thermal stability score came to 0.415 in the data set on HeLa Kyoto [4] (setting [5]) and 1.04 with HeLa Kyoto [4] (cell cycle stage: mitosis).

For “MSNSRPRSRRDAGGGAGAAGRDELVSRSLQSAEHCLGVQDFGTAYAHYLLVLSLAPELKHDVKETFQYTLFRWAEELDALSRIQDLLGCYEQALELFPDDEVICNSMGEHLFRMGFRDEAAGYFHKAVKLNPDFSDAKENFYRVANWLVERWHFIMLNDTKRNTIYNAAIQKAVCLGSKSVLDIGAGTGILSMFAKKAGAHSVYACELSKTMYELACDVVAANKMEAGIKLLHTKSLDIEIPKHIPERVSLVVTETVDAGLFGEGIVESLIHAWEHLLLQPKTKGESANCEKYGKVIPASAVIFGMAVECAEIRRHHRVGIKDIAGIHLPTNVKFQSPAYSSVDTEETIEPYTTEKMSRVPGGYLALTECFEIMTVDFNNLQELKSLATKKPDKIGIPVIKEGILDAIMVWFVLQLDDEHSLSTSPSEETCWEQAVYPVQDLADYWIKPGDHVMMEVSCQDCYLRIQSISVLGLECEMDVAKSFTQNKDLLSLGNEAELCSALANLQTSKPDAVEQTCILESTEIALLNNIPYHEGFKMAMSKVLSSLTPEKLYQTMDTHCQNEMSSGTGQSNTVQNILEPFYVLDVSEGFSVLPVIAGTLGQVKPYSSVEKDQHRIALDLISEANHFPKETLEFWLRHVEDESAMLQRPKSDKLWSIIILDVIEPSGLIQQEIMEKAAISRCLLQSGGKIFPQYVLMFGLLVESQTLLEENAVQGTERTLGLNIAPFINQFQVPIRVFLDLSSLPCIPLSKPVELLRLDLMTPYLNTSNREVKVYVCKSGRLTAIPFWYHMYLDEEIRLDTSSEASHWKQAAVVLDNPIQVEMGEELVLSIQHHKSNVSITVKQ [PRMT9]”, the “solubility in G1/S (log2)” value with HeLa Kyoto [1] was -0.21. Moreover, the melting temperature was 50.8 °C with HeLa Kyoto [2] (cell cycle stage: G1/S) and 51.1 °C in the data set on HeLa Kyoto [2] (cell cycle stage: mitosis). Besides, the “solubility change mitosis (log2)” value in the data set with HeLa Kyoto [3] is -0.0806. Besides, the thermal stability score with HeLa Kyoto [4] (setting [5]) is 0.367; in the data set on HeLa Kyoto [4] (cell cycle stage: mitosis) it was 0.336.
